Test results as given in publication PMC9605988, “Juxtaposition of Bub1 and Cdc20 on phosphorylated Mad1 during catalytic mitotic checkpoint complex assembly” (Nature Communications, 2022).
Read-outs that look alike come from different tables or passages of the source. Square brackets hold non-standard residues; d marks the D form. Peptide text beside a SMILES is read from it. * marks the point of attachment. X1 = N=c1ccc2c(-c3ccc(C(=O)NCCCCCN4C(=O)CC(*)C4=O)cc3C(=O)O)c3ccc(N)c(S(=O)(=O)O)c3oc-2c1S(=O)(=O)O; pT = C[C@@H](OP(=O)(O)O)[C@H](N)C(=O)O; pS = N[C@@H](COP(=O)(O)O)C(=O)O

Key:
Mad1 CTD (Homo sapiens) = Mad1 CTD (Homo sapiens) (UniProt Q9Y6D9); conditions: cited from earlier work
pMad1CTD:Cdc20N complex = biological target: T1, pMad1CTD:Cdc20N complex (Homo sapiens, UniProt Q12834+Q9Y6D9); assay: Fluorescence anisotropy: AF488-Bub1CD1 binding to preformed pMad1CTD:Cdc20N complex; conditions: KD 1.7 vs 0.9 µM for pMad1CTD alone
T1 construct: the C-terminal domain of Mad1 (residue 597–718); made in house; host or cells: Cdc20N: E. coli Rosetta 2 (DE3)
Description: (§1) All reactions were completed in a buffer of 25 mM HEPES pH 7.75, 1 mM TCEP, 100 mM NaCl, 0.05% (v/v) Tween-20. […] Measurements were performed with a PheraStar plate reader FSX plate reader (BMG Labtech) using an optic module for λex = 485 nm, λem = 520 nm. Reactions were carried out in a total volume of 40 μl at 25 °C in a black, flat-bottom, non-binding surface 384-well plate (Corning). All experiments were performed as technical triplicates and data were analysed in PRISM 9.3.1 (GraphPad Software).

[1] = biological target: the molecule itself; assay: SEC-MALS; Superdex 75 or Superdex 200 Increase 10/300 GL, 0.5 ml/min; about 100 μl at ~3.0 mg/ml; Mad1^CTD dimer to Cdc20^N 1:1.2; proteins also run alone
Bub1CD1 [2] = conditions: cited from earlier work
Excerpt: (§2) In this predicted model, the Cdc20^N α1 helix lies diagonally across the Mad1^CTD coiled-coil with its N-terminus close to the Mad1 RLK motif of one monomer, and the C-terminus contacting the head domain β-sheet of the adjacent monomer, in a manner that strikingly mimics the Bub1^CD1:Mad1^CTD interaction (Fig. 4d). Similar to Bub1^CD1, the interaction of Cdc20 α1 with Mad1^CTD would largely be driven by hydrophobic interactions (Fig. 4e). This model predicts that Gln3 and Glu7, and Asp9 of Cdc20 α1 interact with Arg617 and Lys619, respectively of the Mad1^CTD RLK motif (Fig. 4d). This is consi ...

[3] = system: spindle assembly checkpoint; conditions: cited from earlier work
Excerpt: as §2

Bub1CD1 [4] = assay: Binding of Mad1CTD mutants to Bub1CD1; conditions: fluorescence anisotropy therefore not usable for this mutant
Description: as §1

[5] = biological target: Mad1^CTD phosphorylated at Thr716 (pMad1^CTD) (UniProt Q9Y6D9); assay: AUC; sedimentation equilibrium; 20 mM HEPES pH 7.5, 100 mM NaCl, 1 mM TCEP; 20 °C; 10,200, 12,200 and 21,000 rpm; up to four-fold molar excess of Cdc20^N
[6] = biological target: Mad1^CTD phosphorylated at Thr716 (pMad1^CTD) (UniProt Q9Y6D9); assay: SEC-MALS; Superdex 75 or Superdex 200 Increase 10/300 GL, 0.5 ml/min; about 100 μl at ~3.0 mg/ml; Mad1^CTD dimer to Cdc20^N 1:1.2; proteins also run alone
[7] = biological target: T2, preformed AF488-Bub1^CD1:Mad1^CTD complex (Mad1^CTD unphosphorylated) (UniProt Q9Y6D9 597-718, Aurora Fluor 488 (AF488) on the N-terminal Cys; phosphoserine (pSer459); phosphothreonine (pThr461)); assay: fluorescence polarisation; fluorescence anisotropy; Cdc20^N twofold series (100 μM to 6 nM, mixed 1:1) titrated into preformed AF488-Bub1^CD1:Mad1^CTD (20 nM: 2.1 µM); 25 mM HEPES pH 7.75, 1 mM TCEP, 100 mM NaCl, 0.05% Tween-20; 25 °C; conditions: both partners purified
T2 construct: Mad1 C-terminal domain (Mad1^CTD), residues 597-718; as m1; added N-terminal Cys (carries AF488) and Trp; as m7; Bub1 conserved domain 1 (CD1) peptide; also called Mad1^CTD:AF488-Bub1^CD1 complex; source: mixed from purified Mad1^CTD and synthetic peptide (20 nM: 2.1 µM); copies: 2 + 1
T2 sequence 1: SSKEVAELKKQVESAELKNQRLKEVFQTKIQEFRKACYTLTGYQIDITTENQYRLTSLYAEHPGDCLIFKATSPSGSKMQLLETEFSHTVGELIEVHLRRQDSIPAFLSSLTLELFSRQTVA
T2 sequence 2: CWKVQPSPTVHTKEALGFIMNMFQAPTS

[8] = biological target: T3, preformed AF488-Bub1^CD1:pMad1^CTD complex (Mad1^CTD phosphorylated at Thr716) (UniProt Q9Y6D9 597-718, phosphothreonine at 716 (pThr716) | Aurora Fluor 488 (AF488) on the N-terminal Cys; phosphoserine (pSer459); phosphothreonine (pThr461)); assay: as above; conditions: both partners purified
T3 construct: Mad1 C-terminal domain (Mad1^CTD), residues 597-718; as m2; added N-terminal Cys (carries AF488) and Trp; as m7; Bub1 conserved domain 1 (CD1) peptide; source: mixed from purified pMad1^CTD and synthetic peptide (20 nM: 2.1 µM); copies: 2 + 1
T3 sequence 1: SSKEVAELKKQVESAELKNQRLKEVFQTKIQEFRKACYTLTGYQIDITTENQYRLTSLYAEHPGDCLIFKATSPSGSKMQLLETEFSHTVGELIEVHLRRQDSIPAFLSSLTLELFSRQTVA
T3 sequence 2: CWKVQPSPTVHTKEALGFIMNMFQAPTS

[9] = system: AF488-Bub1CD1:pMad1CTD complex; assay: Fluorescence anisotropy: Cdc20N titrated into preformed AF488-Bub1CD1:pMad1CTD complex; format: binding, human; conditions: at the concentrations used in the assay
pMad1CTD (Mad1CTD pT716) = assay: SEC-MALS, Cdc20N with pMad1CTD; format: binding, human; conditions: 1:1.2 ratio Mad1CTD dimer to Cdc20N
Description: (§3) Size-exclusion chromatography coupled with multi-angle static light scattering (SEC-MALS), was performed using an Agilent 1200 series LC system with an online Dawn Helios ii system (Wyatt) equipped with a QELS + module (Wyatt) and an Optilab rEX differential refractive index detector (Wyatt). About 100 μl purified protein at ~3.0 mg/ml was auto-injected onto Superdex 75 or a Superdex 200 Increase 10/300 GL column (GE Healthcare) and run at 0.5 ml/min. The molecular masses were analysed with ASTRA 7.3.0.11 (Wyatt). Data were plotted using Prism 8.4.3 (GraphPad Software, Inc). Purified Cdc20^N and Cdc20^N mutants were incubated with Mad1^CTD wild-type or mutants at a 1:1.2 ratio of Mad1^CTD dimer to Cdc20^N.

[10] = system: Mad1CTD R617E/K619D mutant; assay: SEC-MALS, Cdc20N with Mad1CTD R617E/K619D; format: binding, human; conditions: 1:1.2 ratio Mad1CTD dimer to Cdc20N
Description: as §3

[11] = biological target: T4, Mad2 R133A prepared in the open state for NMR (O-Mad2) (UniProt Q13257 1-205, R133A); assay: NMR time course (1H,15N HSQC); 100 μM 15N O-Mad2 R133A with 200 μM Cdc20^MIM peptide; 25 °C; Trp75 and Trp167 indole resonances as reporters; conditions: both partners purified
T4 construct: Mad2; also called O-Mad2 with an R133A mutation; source: 15N-labelled in M9 minimal media
T4 sequence (Q13257 whole entry R133A): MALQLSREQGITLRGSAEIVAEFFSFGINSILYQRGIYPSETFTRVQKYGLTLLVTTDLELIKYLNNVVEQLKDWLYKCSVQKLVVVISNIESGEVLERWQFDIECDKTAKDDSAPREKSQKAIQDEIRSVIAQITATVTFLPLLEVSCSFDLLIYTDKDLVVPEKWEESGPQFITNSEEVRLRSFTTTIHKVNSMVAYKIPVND

Molecule: Bub1 CD1 (from UniProt O43683)
- Kd (Mad1 CTD (Homo sapiens)): 2.7 µM

Molecule: CC[C@H](C)[C@H](NC(=O)[C@H](Cc1ccccc1)NC(=O)CNC(=O)[C@H](CC(C)C)NC(=O)[C@H](C)NC(=O)[C@H](CCC(=O)O)NC(=O)[C@H](CCCCN)NC(=O)[C@@H](NC(=O)[C@H](Cc1c[nH]cn1)NC(=O)[C@@H](NC(=O)[C@@H](NC(=O)[C@@H]1CCCN1C(=O)[C@H](COP(=O)(O)O)NC(=O)[C@@H]1CCCN1C(=O)[C@H](CCC(N)=O)NC(=O)[C@@H](NC(=O)[C@H](CCCCN)NC(=O)[C@H](Cc1c[nH]c2ccccc12)NC(=O)[C@@H](N)CSC1CC(=O)N(CCCCCNC(=O)c2ccc(-c3c4ccc(=N)c(S(=O)(=O)O)c-4oc4c(S(=O)(=O)O)c(N)ccc34)c(C(=O)O)c2)C1=O)C(C)C)[C@@H](C)OP(=O)(O)O)C(C)C)[C@@H](C)O)C(=O)N[C@@H](CCSC)C(=O)N[C@@H](CC(N)=O)C(=O)N[C@@H](CCSC)C(=O)N[C@@H](Cc1ccccc1)C(=O)N[C@@H](CCC(N)=O)C(=O)N[C@@H](C)C(=O)N1CCC[C@H]1C(=O)N[C@H](C(=O)N[C@@H](CO)C(=O)O)[C@@H](C)O (stereo partly drawn) [AF488-Bub1^CD1] (H-C(X1)WKVQP[pS]P[pT]VHTKEALGFIMNMFQAPTS-OH; N-terminus and C-terminus assumed)
- cooperativity of Bub1CD1 and Cdc20N binding to pMad1CTD (pMad1CTD:Cdc20N complex): unlikely to be cooperative
- cooperativity of Bub1CD1 and Cdc20N binding to pMad1CTD (pMad1CTD:Cdc20N complex; listed as AF488-Bub1CD1): no cooperativity

B1: Mad1^CTD phosphorylated at Thr716 (pMad1^CTD) (domain or fragment, UniProt Q9Y6D9 597-718, looked up)
chain: SSKEVAELKKQVESAELKNQRLKEVFQTKIQEFRKACYTLTGYQIDITTENQYRLTSLYAEHPGDCLIFKATSPSGSKMQLLETEFSHTVGELIEVHLRRQDSIPAFLSSLTLELFSRQTVA
modifications: phosphothreonine at 716 (pThr716)
notes: Mad1 C-terminal domain (Mad1^CTD), residues 597-718; Homodimer; A few peptides phosphorylated at Thr644 were also found; one phosphate per monomer by intact mass; also called Mad1^CTD pT716; Mad1^CTD pThr716
- stoichiometry N [1]: 2

B2: Mad1^CTD K619A: Mad1CTD K619A mutant, refs 21, 24 (protein, UniProt Q9Y6D9 597-718, looked up, variant K619A)
chain: SSKEVAELKKQVESAELKNQRLAEVFQTKIQEFRKACYTLTGYQIDITTENQYRLTSLYAEHPGDCLIFKATSPSGSKMQLLETEFSHTVGELIEVHLRRQDSIPAFLSSLTLELFSRQTVA
- Bub1CD1 binding of Mad1CTD mutant (Bub1CD1 [2]): did not disrupt Bub1^CD1 binding significantly
- checkpoint function [3]: disrupted the checkpoint

B3: Mad1^CTD R617E/K619D: Mad1CTD double mutant of the RLK motif (protein)
chain: SSKEVAELKKQVESAELKNQELDEVFQTKIQEFRKACYTLTGYQIDITTENQYRLTSLYAEHPGDCLIFKATSPSGSKMQLLETEFSHTVGELIEVHLRRQDSIPAFLSSLTLELFSRQTVA
- Bub1CD1 binding of Mad1CTD mutant (Bub1CD1 [4]): disrupted the binding of Bub1^CD1

B4: Cdc20^N (N-terminal truncation of Cdc20, residues 1-73) (domain or fragment, human, UniProt Q12834 1-73, looked up)
chain: MAQFAFESDLHSLLQLDAPIPNAPPARWQRKAKEAAGPAPSPMRAANRSHSAGRTPGRTPGKSSSKVQTTPSK
notes: human Cdc20, residues 1-73; also called Cdc20^1–73; wild-type Cdc20^N; source: E. coli Rosetta 2 (DE3), purified (TALON, TEV cleavage, HisTrap, Resource S, Superdex 75); not shown: His6, N-terminal, cleaved; MBP, N-terminal, cleaved
- stoichiometry N (Cdc20^N per pMad1^CTD homodimer) [5]: 1
- stoichiometry N (Cdc20^N per pMad1^CTD dimer) [6]: 1
- Kd [7]: 28.1 µM
- Kd [8]: 4.8 µM

B5: Cdc20^N E7R/D9K: Cdc20N E7R/D9K mutant (protein)
chain: MAQFAFRSKLHSLLQLDAPIPNAPPARWQRKAKEAAGPAPSPMRAANRSHSAGRTPGRTPGKSSSKVQTTPSK
modifications: left off: His6, N-terminal, state not stated | MBP, N-terminal, state not stated
notes: Cdc20N E7R/D9K mutant
- interaction with pMad1CTD by fluorescence anisotropy [9]: could no longer be observed
- binding by SEC-MALS (pMad1CTD (Mad1CTD pT716)): could no longer be observed
- binding by SEC-MALS [10]: did not show an interaction

B6: Cdc20^MIM peptide (peptide)
peptide: NLNGFDVEEAKILRLSGKPQNAPEGYQNRLKVLY
notes: source: synthetic peptide (Designer Bioscience, UK)
- binding result [11]: binds
